The values that follow come from PMC12246119 (Nature Communications, 2025).

For experiment [1], the target named is Ran^Q69L(GTP) (human, UniProt P62826 1-216, Q69L). The experiment is described as follows: cryo-EM structure; purified RanBP2^RBD4/SUMO1^Q94P-RanGAP1/Ubc9 incubated with excess Crm1 and Ran^Q69L(GTP), gel filtration in 20 mM HEPES pH 7.4, 110 mM potassium acetate, 2 mM magnesium acetate, 1 mM TCEP; lightly crosslinked with 250 µM BS3; 0.1% CHAPSO; 9.7 mg/mL. As to conditions: both partners purified. A general note: Size exclusion chromatography separates by hydrodynamic size, large species first.

Experiment [2] deals with T1, Crm1 (human, UniProt O14980 1-1071).
T1 construct: Crm1 (exportin), human, full length, wild type; also called exportin Crm1; source: E. coli BL21(DE3) SoluBL21 with Codon Plus (RIL) plasmid, purified (Ni-NTA, Ulp1 cleavage, Superdex 200, MonoQ); not shown: His6, N-terminal, cleaved; Smt3, N-terminal, cleaved
The experiment is described as above. As to conditions: both partners purified.

T1 sequence (O14980 whole entry): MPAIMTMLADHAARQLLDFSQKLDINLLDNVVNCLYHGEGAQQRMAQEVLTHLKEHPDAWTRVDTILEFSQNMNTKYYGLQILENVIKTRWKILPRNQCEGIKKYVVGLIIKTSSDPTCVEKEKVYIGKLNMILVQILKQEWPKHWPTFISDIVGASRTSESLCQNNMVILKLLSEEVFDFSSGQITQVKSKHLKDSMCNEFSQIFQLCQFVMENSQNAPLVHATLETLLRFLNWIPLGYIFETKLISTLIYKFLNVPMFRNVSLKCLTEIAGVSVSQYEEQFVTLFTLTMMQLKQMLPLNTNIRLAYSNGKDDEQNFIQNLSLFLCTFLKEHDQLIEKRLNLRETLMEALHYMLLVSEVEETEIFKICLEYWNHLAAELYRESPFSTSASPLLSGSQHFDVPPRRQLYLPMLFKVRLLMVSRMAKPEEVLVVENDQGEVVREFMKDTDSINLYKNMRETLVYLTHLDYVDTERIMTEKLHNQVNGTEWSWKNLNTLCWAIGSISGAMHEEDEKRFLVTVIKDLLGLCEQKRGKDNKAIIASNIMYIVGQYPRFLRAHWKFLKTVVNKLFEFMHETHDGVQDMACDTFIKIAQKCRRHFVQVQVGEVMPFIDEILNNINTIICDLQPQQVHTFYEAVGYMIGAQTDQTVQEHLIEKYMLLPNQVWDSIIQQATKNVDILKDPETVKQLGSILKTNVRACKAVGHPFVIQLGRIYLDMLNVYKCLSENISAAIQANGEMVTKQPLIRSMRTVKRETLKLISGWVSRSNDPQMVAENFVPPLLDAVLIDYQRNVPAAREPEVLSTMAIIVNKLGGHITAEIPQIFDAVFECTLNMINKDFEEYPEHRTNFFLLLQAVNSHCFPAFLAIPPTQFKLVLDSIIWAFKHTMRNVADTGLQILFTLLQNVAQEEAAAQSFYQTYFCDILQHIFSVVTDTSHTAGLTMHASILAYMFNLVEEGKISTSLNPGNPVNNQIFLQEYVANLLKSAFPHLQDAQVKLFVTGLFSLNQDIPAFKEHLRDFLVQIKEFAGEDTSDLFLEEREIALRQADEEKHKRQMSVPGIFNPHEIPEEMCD

B1: RanBP2^2446-3060 (RanBP2^RBD4) (domain or fragment, human, UniProt P49792 2446-3060, looked up)
chain: DSLITPHVSRSSTPRESPCGKIAVAVLEETTRERTDVIQGDDVADATSEVEVSSTSETTPKAVVSPPKFVFGSESVKSIFSSEKSKPFAFGNSSATGSLFGFSFNAPLKSNNSETSSVAQSGSESKVEPKKCELSKNSDIEQSSDSKVKNLFASFPTEESSINYTFKTPEKAKEKKKPEDSPSDDDVLIVYELTPTAEQKALATKLKLPPTFFCYKNRPDYVSEEEEDDEDFETAVKKLNGKLYLDGSEKCRPLEENTADNEKECIIVWEKKPTVEEKAKADTLKLPPTFFCGVCSDTDEDNGNGEDFQSELQKVQEAQKSQTEEITSTTDSVYTGGTEVMVPSFCKSEEPDSITKSISSPSVSSETMDKPVDLSTRKEIDTDSTSQGESKIVSFGFGSSTGLSFADLASSNSGDFAFGSKDKNFQWANTGAAVFGTQSVGTQSAGKVGEDEDGSDEEVVHNEDIHFEPIVSLPEVEVKSGEEDEEILFKERAKLYRWDRDVSQWKERGVGDIKILWHTMKNYYRILMRRDQVFKVCANHVITKTMELKPLNVSNNALVWTASDYADGEAKVEQLAVRFKTKEVADCFKKTFEECQQNLMKLQKGHVSLAAELSK
notes: RanBP2 (Nup358), human, residues 2446-3060: FG1, IR1-M-IR2, FG2 and RBD4; also called RanBP2 FG1-IR1-M-IR2-FG2-RBD4 fragment; hRanBP2^RBD4; source: E. coli BL21(DE3) Codon Plus (RIL), purified (Ni-NTA, Superdex 200)
As to B1, the binding result in experiment [1] and in experiment [2] was “binds” in each case.
